Source: PMC9463536 (The Journal of Biological Chemistry, 2022)

Molecular target: biotinylated claudin-4–cCpE^1 complex (Homo sapiens claudin-4; Clostridium …, UniProt O14493;P01558, biotin (NHS-PEG4-biotin; sites not stated))
Assay: BLI
Details: both partners purified

Chain of biotinylated claudin-4–cCpE^1 complex (O14493 whole entry, chain 1 of 2): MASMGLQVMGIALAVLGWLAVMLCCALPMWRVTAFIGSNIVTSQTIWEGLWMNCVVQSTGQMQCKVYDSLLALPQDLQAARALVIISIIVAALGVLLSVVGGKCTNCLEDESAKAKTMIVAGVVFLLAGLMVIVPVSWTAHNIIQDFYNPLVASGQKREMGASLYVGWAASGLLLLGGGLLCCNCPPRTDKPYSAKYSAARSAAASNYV
Chain of biotinylated claudin-4–cCpE^1 complex (P01558 197-319, chain 2 of 2): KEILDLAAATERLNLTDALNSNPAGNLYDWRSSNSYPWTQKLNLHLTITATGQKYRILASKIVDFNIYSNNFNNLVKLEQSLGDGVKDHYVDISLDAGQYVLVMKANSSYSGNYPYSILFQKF

B1: COP-3 (CpE Obstructing Protein 3), synthetic antigen-binding fragment (Fab, V domains shown)
VH: EVQLVESGGGLVQPGGSLRLSCAASGFNFYSSSIHWVRQAPGKGLEWVAYISSYSGYTYYADSVKGRFTISADTSKNTAYLQMNSLRAEDTAVYYCARGYGYFDYNFSVGYALDYWGQGTLVTVSS
VL: DIQMTQSPSSLSASVGDRVTITCRASQSVSSAVAWYQQKPGKAPKLLIYSASSLYSGVPSRFSGSRSGTDFTLTISSLQPEDFATYYCQQSHPWYYPITFGQGTKVEIK
notes: also called sFab; source: E. coli BL21-Gold, purified (MabSelect SuRe, Resource S)
- Kd: 200 ± 5.5 nM
- koff: 0.0039 s⁻¹
- kon: 19000 M⁻¹ s⁻¹

B2: COP-2 (CpE Obstructing Protein 2), synthetic antigen-binding fragment (Fab, V domains shown)
VH: EVQLVESGGGLVQPGGSLRLSCAASGFNFSSSSIHWVRQAPGKGLEWVASISSYSGYTSYADSVKGRFTISADTSKNTAYLQMNSLRAEDTAVYYCARYWSWYNSSHYIYSALDYWGQGTLVTVSS
VL: DIQMTQSPSSLSASVGDRVTITCRASQSVSSAVAWYQQKPGKAPKLLIYSASSLYSGVPSRFSGSRSGTDFTLTISSLQPEDFATYYCQQSYEWAPVTFGQGTKVEIK
notes: as for B1
- Kd: 161.3 ± 0.6 nM
- koff: 0.0012 s⁻¹
- kon: 7700 M⁻¹ s⁻¹
